Common to all, as to assay: EMSA
Details in all cases: 10 mM Tris-Cl pH 8.0, 1 mM DTT, 10% glycerol, 5 mM MgCl2, 10 mM KCl, with 50 mM acetyl phosphate when indicated; EMSA 30 min at 37 C; footprint at room …
(In general: Mobility shift assays separate free from complexed probe on a gel.)

In series [1] the test system is 6His-BfmR (Pseudomonas aeruginosa MPAO1).
Series [2] has the same test system. The source holds these as a separate data set.
For series [3], the system named is 6His-BfmR D55A (Pseudomonas aeruginosa MPAO1).

Broadly, the Kd is the free concentration of one partner at which half of the binding sites on the other are occupied at equilibrium, for simple one-to-one binding. Low readings indicate tighter binding, high ones weaker binding.

Where “and” joins values, the source holds several entries; their conditions need not be identical. Equal entries are not always repeated.

As for bfmR promoter, the Kd in series [1] is 0.2 µM and > 0.6 µM; in series [2], < 0.4 µM; in series [3] it was > 0.6 µM.
